The target in assay [1] is constitutively active BMPR-IB. Nature of the assay: cell-based or functional assay.
The target in assay [2] is constitutively active (TD) TβR-I (UniProt P36897). The experiment in a line: cell-based or functional assay.
constitutively active (TD) TβR-I, sequence (P36897 34-503 T204D limits assumed): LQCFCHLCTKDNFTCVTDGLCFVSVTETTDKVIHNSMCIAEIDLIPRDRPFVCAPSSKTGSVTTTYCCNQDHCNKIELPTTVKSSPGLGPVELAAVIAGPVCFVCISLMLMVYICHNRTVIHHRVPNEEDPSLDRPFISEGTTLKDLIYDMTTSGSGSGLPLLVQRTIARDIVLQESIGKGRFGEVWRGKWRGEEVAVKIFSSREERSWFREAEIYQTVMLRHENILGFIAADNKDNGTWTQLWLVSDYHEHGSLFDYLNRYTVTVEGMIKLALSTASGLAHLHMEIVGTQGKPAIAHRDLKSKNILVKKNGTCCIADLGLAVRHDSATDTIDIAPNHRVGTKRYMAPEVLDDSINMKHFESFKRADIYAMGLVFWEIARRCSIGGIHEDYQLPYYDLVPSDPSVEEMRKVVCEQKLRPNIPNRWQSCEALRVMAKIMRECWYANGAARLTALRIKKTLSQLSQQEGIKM

In the case of Myc-Smad6 (from UniProt O35182 1-495), the Smad1 phosphorylation induced by constitutively active BMPR-IB in assay [1] is 60 % reduction. This substance yielded a Phosphorylation of Smad2 induced by constitutively active TβR-I ([32P]orthophosphate labeling, immunoprecipitation) in assay [2] of 39 % reduction.

Source of the values: patent US20040053278A1.
